{
  "source": "paper PMC5069464",
  "conditions_in_all_cases": "glycan lost; control: wild type",
  "key": {"[1]": {"assay": "whole-cell tail currents, Boltzmann fit"}, "[2]": {"assay": "puromycin chase, >250 kDa band at 48 hr"}, "[3]": {"assay": "cell-attached single-channel recording, tsA201"}, "[4]": {"assay": "high-throughput patch (IonWorks Barracuda), peak current"}, "[5]": {"assay": "whole-cell pre-pulse protocol, Boltzmann fit"}},
  "data": [
    {"substance": "hCaV3.3 α1 subunit: R1346H", "values": [
      {"measurement": "other: voltage dependence of activation, other: V1/2-negative", "setting": "[1]", "result": "no change, −37.6 ± 0.99 vs −40.0 ± 0.98"},
      {"measurement": "degradation_or_half_life, other: fraction of pre-puromycin level", "setting": "[2]", "result": "no change, 0.50 ± 0.12 vs 0.36 ± 0.08"},
      {"measurement": "other: single-channel conductance, other: conductance", "setting": "[3]", "result": "no change, 13.7 ± 0.6 vs 14.0 ± 0.8"},
      {"measurement": "other: channel current, other: median peak current", "setting": "[4]", "result": "decreases, 0.56 vs 1.30"},
      {"measurement": "other: voltage dependence of inactivation, other: V1/2", "setting": "[5]", "result": "no change, −69.4 ± 1.4 vs −67.1 ± 0.89"}
    ]}
  ]
}
